In paper PMC9205196 one finds EC50 and EC50 of ternary complex formation with soluble non-tagged FGF2 data, which are given here for four substances.

pEC50: −log10 of the molar value.

Assay [1] has as its target SDC1_(47HS): murine syndecan-1 ectodomain with heparan sulfate conjugated at residue 47 (mouse) (UniProt P18828). Description: ELISA.
Assay [2] has as its target SDC1_(47HEP): murine syndecan-1 ectodomain with heparin conjugated at residue 47 (mouse) (UniProt P18828). Description: ELISA.
For assay [3], the target named is SDC1_(37HEP): murine syndecan-1 ectodomain with heparin conjugated at residue 37 (mouse) (UniProt P18828). Description: ELISA.
In assay [4] the target is SDC1_(37): deglycosylated murine syndecan-1 ectodomain with p-propargyltyrosine at residue 37 (mouse) (UniProt P18828). In words: ELISA.
Assay [5] addresses Vitronectin (VN), biotinylated (UniProt P04004). Description: AlphaScreen or HTRF. Background: In Alpha technology, singlet oxygen from a donor bead excites a nearby acceptor bead.
The target of the next assay is FGFR1, biotinylated (UniProt P11362). Description: AlphaScreen or HTRF.
Assay [6] concerns the target Recombinant human FGF2 (fibroblast growth factor-2), biotinylated (human). Description: AlphaScreen or HTRF.

As usually defined, the pEC50 is the negative decadic logarithm of the EC50, by convention in mol/L. With “Recombinant human αvβ3 integrin (from UniProt P06756-1 31-992; P05106 27-718) (complex)”, the pEC50 was 7.40 in assay [1], 8.30 in assay [2], 8.00 in assay [3] and 7.00 in assay [4].
In the case of “SDC1_(37): deglycosylated murine syndecan-1 ectodomain with p-propargyltyrosine at residue 37 (from UniProt P18828 23-255) (domain or fragment)”, the pEC50 is below 7.00 in assay [5]; below 7.70 with FGFR1, biotinylated; below 7.00 in assay [6]. In the assay with FGFR1, biotinylated, this substance came in with an EC50 of ternary complex formation with soluble non-tagged FGF2 above 20 nM.
On to “SDC1_(37HEP): murine syndecan-1 ectodomain with heparin conjugated at residue 37 (from UniProt P18828 23-255) (domain or fragment)”, for which the pEC50 was 9.00 in assay [5]; 9.52 with FGFR1, biotinylated; 9.40 in assay [6]. Further, in the assay with FGFR1, biotinylated, the EC50 of ternary complex formation with soluble non-tagged FGF2 worked out at 0.007 nM.
In the assay with FGFR1, biotinylated, “SDC1_(47HEP): murine syndecan-1 ectodomain with heparin conjugated at residue 47 (from UniProt P18828 23-255) (domain or fragment)” showed a pEC50 of 9.70 and an EC50 of ternary complex formation with soluble non-tagged FGF2 of 0.007 nM. The pEC50 in assay [6] was 9.52.
